Target: Human Galectin-3 protein (Acro Biosystems, GA3-H5129)
Test: blocking ELISA (Gal3 coated; antibody 3 µg/mL + INSR)

B1: 15G7.2A7 (protein)
chain 1: EVQLQQSGPELVKPGASVKISCKASGYTFTDYYMNWVKQSHGKSLEWIGDINPNNGGTNYNQKFKGKATLTVDKSSSTAYMELRSLTSEDSAVYYCTSGYGFPYWGQGTLVTVSA
chain 2: DIQMNQSPSSLSASLGDTISITCRASQNINIWLSWYQQKPGNIPQLLIYKASNLHTGVPSRFSGSGSGTDFTLTISSLQPEDIATYYCLQGQSYPLTFGAGTKLVMK
  reduction of Gal3-INSR assembly (%): reduced assembly of Gal3 and INSR by greater than 99% at 3 µg/mL

From patent publication US20230094463
